Laboratory results: patent publication US20160200813A1
Numbering of substitutions follows the chain as printed.

Experiments:
[1] = biological target: Mouse LRP-8 expressed on HEK293 cells (mouse) (UniProt Q924X6); experiment: cell-based MSD binding assay on 293H-mLRP8 cells; curve label 11H1-20
[2] = biological target: Mouse LRP-8 expressed on HEK293 cells (mouse) (UniProt Q924X6); experiment: cell-based MSD binding assay on 293H-mLRP8 cells; curve label 11H1-21, no plateau up to about 600 nM
[3] = biological target: Mouse LRP-8 expressed on HEK293 cells (mouse) (UniProt Q924X6); experiment: cell-based binding on MOUSE LRP8-HEK293, supernatant 1:5
[4] = biological target: Mouse LRP-8 expressed on HEK293 cells (mouse) (UniProt Q924X6); experiment: cell-based binding on MOUSE LRP8-HEK293, supernatant 1:25
[5] = biological target: Mouse LRP-8 expressed on HEK293 cells (mouse) (UniProt Q924X6); experiment: cell-based MSD, 1 to 25, mouse-LRP8-HEK293
[6] = biological target: Mouse LRP-8 expressed on HEK293 cells (mouse) (UniProt Q924X6); experiment: cell-based binding on MOUSE LRP8-HEK293, supernatant 1:125
[7] = biological target: Mouse LRP-8 expressed on HEK293 cells (mouse) (UniProt Q924X6); experiment: cell-based MSD, 1 to 5, mouse-LRP8-HEK293
[8] = biological target: Mouse LRP-8 expressed on HEK293 cells (mouse) (UniProt Q924X6); experiment: cell-based MSD, 1 to 125, mouse-LRP8-HEK293
[9] = biological target: Mouse LRP-8 expressed on HEK293 cells (mouse) (UniProt Q924X6); experiment: cell-based binding assay, mLRP8
[10] = biological target: Mouse LRP-8 expressed on HEK293 cells (mouse) (UniProt Q924X6); experiment: fit of the FACS titration of FIG. 12A on mLRP8-transfected HEK293 cells; the column head prints EC50 only, nM is from legend paragraph 78 and the axis of FIG. 12A
[11] = biological target: Mouse LRP-8 expressed on HEK293 cells (mouse) (UniProt Q924X6); experiment: cell-based MSD-ECL binding on cells overexpressing mouse LRP-8 variant 1 (mLRP8 assay); curve without plateau up to 10000 ng/ml
[12] = biological target: Mouse LRP-8 expressed on HEK293 cells (mouse) (UniProt Q924X6); experiment: mLRP8 cell binding; chimeric VL / chimeric VH
[13] = biological target: Mouse LRP-8 expressed on HEK293 cells (mouse) (UniProt Q924X6); experiment: FACS, mouse LRP8 cells

B1: LRP8-ML199.11H1.5B2 VH1/VL1A.20 (antibody, V domains shown)
VH: EVQLVESGGGLVKPGGSLRLSCAASRFTFSNYGMSWVRQAPGKGLEWVSTISSGGRYTYYPDHVKGRFTISRDNAKNSLYLQMNSLRAEDTAVYYCARDYLYAMDYWGQGTTVTVSS
VL: DVVMTQSPLSLPVTPGEPASISCRSSQSLVYSWGNTYLHWYLQKPGQSPQVLMYKVSNRFSGVPDRFSGSGSGTDFTLKISRVEAEDVGVYFCSQSTHVPLTFGQGTKLEIK
- EC50 [1]: 21 nM

B2: LRP8-ML199.11H1.5B2 VH1/VL1A.21 (antibody, V domains shown)
VH: B1 VH
VL: B1 VL with W33P
- EC50 [2]: 249 nM

B3: BGK-7F7 (GENOVAC candidate clone of Table 17) (antibody, V domains shown)
VH: QVTLKESGPGILQPSQTLSLTCTFSGFSLSTYGLGVGWIRQPSGKGLEWLANIWWDDAKYYNPSLKNRLTISKDTSNNQAFLKIPNVDTADTARYYCARTTKPYYFDYWGQGVMVTVSS
VL: HFVLAQPNSVSTNLGSTVKLSCKRSTANIGSNYVNWYQQHEGRSPTTLIYRDDRRPDGVPDRFSGSIDRSSNSALLTINNVQTEDEADYFCQSYSSGINIFGGGTKLTVL
- fold over isotype control [3]: 27.4 fold
- fold over isotype control [4]: 21.6 fold
- fold over IgG control [5]: 6 fold
- fold over isotype control [6]: 13.1 fold
- fold over IgG control [7]: 3.5 fold
- fold over IgG control [8]: 5.3 fold

B4: anti-LRP-8 BGK-2C8.8C antibody (antibody, V domains shown)
VH: EVQLVESGGGLVQPGRSLKLSCAASGFTVSDYYMAWVRQAPKKGLEWVASISYEGSSTYYGDSVKGRFTISRDNAKSILYLQMNSLRSEDTATYYCARPLRYYGYNYRFAYWGQGTLVTVSS
VL: DIQMSQSPPVLSASVGDRVTLSCKASQNIHKNLDWYQQKHGEAPKLLIYYTDNLQTGIPSRFSGSGSGTDYTLTISSLQPEDVATYYCYQYNSGPTFGAGTKLELQ
- EC50 [9]: 22 nM
- EC50 [10]: 2.61 nM
- EC50 [11]: 4.4 µg/mL

B5: chimeric anti-LRP-8 ML199.11H1.5B2 antibody [mu/hu IgG1/k] LALA (antibody, V domains shown)
VH: EVQLVESGGDLVKPGGSLKLSCAASRFTFSNYGMSWVRQTPDKRLEWVATISSGGRYTYYPDSVKGRFTISRDNAKNTLYLQMSSLRSEDTAMYYCARDYLYAMDYWGQGTSVTVSS
VL: DVVMTQTPLSLPVSLGDQASISCRSSQSLVYSNGNTYLHWYLQKPGQSPKVLMYKVSNRFSGVSDRFSGSGSGTDFTLKISRVEAEDLGVYFCSQSTHVPLTFGAGTKLELK
- EC50 [9]: 0.32 nM
- EC50 [12]: 0.95 nM
- FACS (ratio +/-) [13]: 283
